{"source": "patent US20210139548A1", "about": "(published 2021)", "note": "*1 amine or outer side, *2 acyl side, *3 side chain or, on linkers, in order; H or OH if unused. Side-chain parts run from the residue outwards. The star is where a group is joined. C18 diacid = O=C(O)CCCCCCCCCCCCCCCCC(=O)*; γGlu = O=C(O)[C@H](CCC(=O)[*:2])N[*:1]; Isovaleryl = CC(C)CC(=O)*; AEEA = NCCOCCOCC(=O)O", "data": [{"biological_target": "T1, human neuropeptide Y2 receptor (human, UniProt P49146 1-381)", "T1 construct": "whole, on cells; also called hNPY2 receptor; hNPY2-R", "T1 sequence (looked up)": "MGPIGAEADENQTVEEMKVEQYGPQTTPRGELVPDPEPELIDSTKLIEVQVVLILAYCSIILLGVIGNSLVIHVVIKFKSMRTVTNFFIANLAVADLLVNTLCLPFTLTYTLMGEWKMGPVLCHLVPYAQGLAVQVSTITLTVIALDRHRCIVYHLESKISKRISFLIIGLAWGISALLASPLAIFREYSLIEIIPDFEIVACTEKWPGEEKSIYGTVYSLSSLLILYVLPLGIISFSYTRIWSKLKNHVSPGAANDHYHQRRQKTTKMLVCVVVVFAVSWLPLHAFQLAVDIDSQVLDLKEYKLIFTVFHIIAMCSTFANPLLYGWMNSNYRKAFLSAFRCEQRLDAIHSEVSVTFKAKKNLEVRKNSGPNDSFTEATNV", "assay": "radioligand competition (125I-PYY(1-36)), hNPY2R membranes", "method_in_brief": "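Commercial human Y2 receptor membranes (0.5 μg protein/well) were incubated with peptide for 2 h at room temperature in 50 mM HEPES, 5 mM MgCl₂, 1 mM CaCl₂, pH 7.4, with 0.2% ovalbumin. Bound radioligand was separated on PEI-soaked GF/C filters and counted by scintillation, and IC₅₀ came from nonlinear sigmoidal regression.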", "units": {"Ki": "nM"}, "values": [{"binder": "Isovaleryl-APEK([AEEA-AEEA-γGlu-C18 diacid])PEEDASPEETQRYEVSLRHYYNWLTRQRY-NH2 (SMILES CC(C)CC(=O)N[C@@H](C)C(=O)N1CCC[C@H]1C(=O)N[C@@H](CCC(=O)O)C(=O)N[C@@H](CCCCNC(=O)COCCOCCNC(=O)COCCOCCNC(=O)CC[C@H](NC(=O)CCCCCCCCCCCCCCCCC(=O)O)C(=O)O)C(=O)N1CCC[C@H]1C(=O)N[C@@H](CCC(=O)O)C(=O)N[C@@H](CCC(=O)O)C(=O)N[C@@H](CC(=O)O)C(=O)N[C@@H](C)C(=O)N[C@@H](CO)C(=O)N1CCC[C@H]1C(=O)N[C@@H](CCC(=O)O)C(=O)N[C@@H](CCC(=O)O)C(=O)N[C@H](C(=O)N[C@@H](CCC(N)=O)C(=O)N[C@@H](CCCNC(=N)N)C(=O)N[C@@H](Cc1ccc(O)cc1)C(=O)N[C@@H](CCC(=O)O)C(=O)N[C@H](C(=O)N[C@@H](CO)C(=O)N[C@@H](CC(C)C)C(=O)N[C@@H](CCCNC(=N)N)C(=O)N[C@@H](Cc1c[nH]cn1)C(=O)N[C@@H](Cc1ccc(O)cc1)C(=O)N[C@@H](Cc1ccc(O)cc1)C(=O)N[C@@H](CC(N)=O)C(=O)N[C@@H](Cc1c[nH]c2ccccc12)C(=O)N[C@@H](CC(C)C)C(=O)N[C@H](C(=O)N[C@@H](CCCNC(=N)N)C(=O)N[C@@H](CCC(N)=O)C(=O)N[C@@H](CCCNC(=N)N)C(=O)N[C@@H](Cc1ccc(O)cc1)C(N)=O)[C@@H](C)O)C(C)C)[C@@H](C)O)", "note": "[Compound 37]", "Ki": 4.85}, {"binder": "Isovaleryl-APEK([AEEA-AEEA-γGlu-C18 diacid])PEEDATPEETQRYYVSLRHYYNWLTRQRY-NH2 (SMILES CC(C)CC(=O)N[C@@H](C)C(=O)N1CCC[C@H]1C(=O)N[C@@H](CCC(=O)O)C(=O)N[C@@H](CCCCNC(=O)COCCOCCNC(=O)COCCOCCNC(=O)CC[C@H](NC(=O)CCCCCCCCCCCCCCCCC(=O)O)C(=O)O)C(=O)N1CCC[C@H]1C(=O)N[C@@H](CCC(=O)O)C(=O)N[C@@H](CCC(=O)O)C(=O)N[C@@H](CC(=O)O)C(=O)N[C@@H](C)C(=O)N[C@H](C(=O)N1CCC[C@H]1C(=O)N[C@@H](CCC(=O)O)C(=O)N[C@@H](CCC(=O)O)C(=O)N[C@H](C(=O)N[C@@H](CCC(N)=O)C(=O)N[C@@H](CCCNC(=N)N)C(=O)N[C@@H](Cc1ccc(O)cc1)C(=O)N[C@@H](Cc1ccc(O)cc1)C(=O)N[C@H](C(=O)N[C@@H](CO)C(=O)N[C@@H](CC(C)C)C(=O)N[C@@H](CCCNC(=N)N)C(=O)N[C@@H](Cc1c[nH]cn1)C(=O)N[C@@H](Cc1ccc(O)cc1)C(=O)N[C@@H](Cc1ccc(O)cc1)C(=O)N[C@@H](CC(N)=O)C(=O)N[C@@H](Cc1c[nH]c2ccccc12)C(=O)N[C@@H](CC(C)C)C(=O)N[C@H](C(=O)N[C@@H](CCCNC(=N)N)C(=O)N[C@@H](CCC(N)=O)C(=O)N[C@@H](CCCNC(=N)N)C(=O)N[C@@H](Cc1ccc(O)cc1)C(N)=O)[C@@H](C)O)C(C)C)[C@@H](C)O)[C@@H](C)O)", "note": "[Compound 40]", "Ki": 1.21}, {"binder": "Isovaleryl-APEK([AEEA-AEEA-γGlu-C18 diacid])PEEAASPEELQRYYVSTRHYYNWLTRQRY-NH2 (SMILES CC(C)CC(=O)N[C@@H](C)C(=O)N1CCC[C@H]1C(=O)N[C@@H](CCC(=O)O)C(=O)N[C@@H](CCCCNC(=O)COCCOCCNC(=O)COCCOCCNC(=O)CC[C@H](NC(=O)CCCCCCCCCCCCCCCCC(=O)O)C(=O)O)C(=O)N1CCC[C@H]1C(=O)N[C@@H](CCC(=O)O)C(=O)N[C@@H](CCC(=O)O)C(=O)N[C@@H](C)C(=O)N[C@@H](C)C(=O)N[C@@H](CO)C(=O)N1CCC[C@H]1C(=O)N[C@@H](CCC(=O)O)C(=O)N[C@@H](CCC(=O)O)C(=O)N[C@@H](CC(C)C)C(=O)N[C@@H](CCC(N)=O)C(=O)N[C@@H](CCCNC(=N)N)C(=O)N[C@@H](Cc1ccc(O)cc1)C(=O)N[C@@H](Cc1ccc(O)cc1)C(=O)N[C@H](C(=O)N[C@@H](CO)C(=O)N[C@H](C(=O)N[C@@H](CCCNC(=N)N)C(=O)N[C@@H](Cc1c[nH]cn1)C(=O)N[C@@H](Cc1ccc(O)cc1)C(=O)N[C@@H](Cc1ccc(O)cc1)C(=O)N[C@@H](CC(N)=O)C(=O)N[C@@H](Cc1c[nH]c2ccccc12)C(=O)N[C@@H](CC(C)C)C(=O)N[C@H](C(=O)N[C@@H](CCCNC(=N)N)C(=O)N[C@@H](CCC(N)=O)C(=O)N[C@@H](CCCNC(=N)N)C(=O)N[C@@H](Cc1ccc(O)cc1)C(N)=O)[C@@H](C)O)[C@@H](C)O)C(C)C)", "note": "[Compound 42]", "Ki": 5.92}, {"binder": "Isovaleryl-APEK([AEEA-AEEA-γGlu-C18 diacid])PEAPASPEELQRYYVSLRHYYNWLTRQRY-NH2 (SMILES CC(C)CC(=O)N[C@@H](C)C(=O)N1CCC[C@H]1C(=O)N[C@@H](CCC(=O)O)C(=O)N[C@@H](CCCCNC(=O)COCCOCCNC(=O)COCCOCCNC(=O)CC[C@H](NC(=O)CCCCCCCCCCCCCCCCC(=O)O)C(=O)O)C(=O)N1CCC[C@H]1C(=O)N[C@@H](CCC(=O)O)C(=O)N[C@@H](C)C(=O)N1CCC[C@H]1C(=O)N[C@@H](C)C(=O)N[C@@H](CO)C(=O)N1CCC[C@H]1C(=O)N[C@@H](CCC(=O)O)C(=O)N[C@@H](CCC(=O)O)C(=O)N[C@@H](CC(C)C)C(=O)N[C@@H](CCC(N)=O)C(=O)N[C@@H](CCCNC(=N)N)C(=O)N[C@@H](Cc1ccc(O)cc1)C(=O)N[C@@H](Cc1ccc(O)cc1)C(=O)N[C@H](C(=O)N[C@@H](CO)C(=O)N[C@@H](CC(C)C)C(=O)N[C@@H](CCCNC(=N)N)C(=O)N[C@@H](Cc1c[nH]cn1)C(=O)N[C@@H](Cc1ccc(O)cc1)C(=O)N[C@@H](Cc1ccc(O)cc1)C(=O)N[C@@H](CC(N)=O)C(=O)N[C@@H](Cc1c[nH]c2ccccc12)C(=O)N[C@@H](CC(C)C)C(=O)N[C@H](C(=O)N[C@@H](CCCNC(=N)N)C(=O)N[C@@H](CCC(N)=O)C(=O)N[C@@H](CCCNC(=N)N)C(=O)N[C@@H](Cc1ccc(O)cc1)C(N)=O)[C@@H](C)O)C(C)C)", "note": "[Compound 43]", "Ki": 0.4}, {"binder": "Isovaleryl-APEK([AEEA-AEEA-γGlu-C18 diacid])PEEEASPEELQRYYVSLRHYYNWITRQRY-NH2 (SMILES CC[C@H](C)[C@H](NC(=O)[C@H](Cc1c[nH]c2ccccc12)NC(=O)[C@H](CC(N)=O)NC(=O)[C@H](Cc1ccc(O)cc1)NC(=O)[C@H](Cc1ccc(O)cc1)NC(=O)[C@H](Cc1c[nH]cn1)NC(=O)[C@H](CCCNC(=N)N)NC(=O)[C@H](CC(C)C)NC(=O)[C@H](CO)NC(=O)[C@@H](NC(=O)[C@H](Cc1ccc(O)cc1)NC(=O)[C@H](Cc1ccc(O)cc1)NC(=O)[C@H](CCCNC(=N)N)NC(=O)[C@H](CCC(N)=O)NC(=O)[C@H](CC(C)C)NC(=O)[C@H](CCC(=O)O)NC(=O)[C@H](CCC(=O)O)NC(=O)[C@@H]1CCCN1C(=O)[C@H](CO)NC(=O)[C@H](C)NC(=O)[C@H](CCC(=O)O)NC(=O)[C@H](CCC(=O)O)NC(=O)[C@H](CCC(=O)O)NC(=O)[C@@H]1CCCN1C(=O)[C@H](CCCCNC(=O)COCCOCCNC(=O)COCCOCCNC(=O)CC[C@H](NC(=O)CCCCCCCCCCCCCCCCC(=O)O)C(=O)O)NC(=O)[C@H](CCC(=O)O)NC(=O)[C@@H]1CCCN1C(=O)[C@H](C)NC(=O)CC(C)C)C(C)C)C(=O)N[C@H](C(=O)N[C@@H](CCCNC(=N)N)C(=O)N[C@@H](CCC(N)=O)C(=O)N[C@@H](CCCNC(=N)N)C(=O)N[C@@H](Cc1ccc(O)cc1)C(N)=O)[C@@H](C)O)", "note": "[Compound 44]", "Ki": 4.44}]}]}
